Here are results for one molecule from article PMC5948177 (Science (New York, N.Y.), 2018).

Usually stoichiometry N stands for a count of units in the complex or per binding partner.

The series “cryo-EM structure” deals with the molecule itself. The experiment in a line: cryo-EM structure.
Series [1] concerns the target T1, a-subunit of the yeast ATP synthase Fo (yeast (strain W303-1A background), UniProt P00854 11-259).
T1 sequence (looked up): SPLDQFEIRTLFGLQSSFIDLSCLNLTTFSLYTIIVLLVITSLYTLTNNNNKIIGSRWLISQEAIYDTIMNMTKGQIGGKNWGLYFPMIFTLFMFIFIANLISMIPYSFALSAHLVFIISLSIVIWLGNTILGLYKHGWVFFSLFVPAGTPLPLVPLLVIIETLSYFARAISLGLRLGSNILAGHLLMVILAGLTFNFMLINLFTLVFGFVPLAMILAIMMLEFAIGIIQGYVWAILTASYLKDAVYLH
The experiment in a line: cryo-EM structure.

B1: c-subunit of the yeast ATP synthase Fo (c10-ring) (natural protein, yeast (strain W303-1A background), UniProt P61829 1-76, looked up)
chain: MQLVLAAKYIGAGISTIGLLGAGIGIAIVFAALINGVSRNPSIKDTVFPMAILGFALSEATGLFCLMVSFLLLFGV
As for B1, in the series “cryo-EM structure”, the “stoichiometry N” value stood at 10. For the same molecule, the binding result in series [1] is on record as “binds”.
